Results published in patent US20170342144A1 (Sanofi, published 2017).
Where a chain is given by its changes, count along the chain named.

T1: human TGFβ2 (human, UniProt P61812 303-414)
T1 construct: also called TGFβ2 homodimer
T1 sequence: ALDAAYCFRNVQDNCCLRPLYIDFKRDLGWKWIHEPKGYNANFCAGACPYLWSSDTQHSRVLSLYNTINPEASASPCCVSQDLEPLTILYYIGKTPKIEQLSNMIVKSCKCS

T2: human TGFβ3 (human, UniProt P10600 301-412)
T2 sequence: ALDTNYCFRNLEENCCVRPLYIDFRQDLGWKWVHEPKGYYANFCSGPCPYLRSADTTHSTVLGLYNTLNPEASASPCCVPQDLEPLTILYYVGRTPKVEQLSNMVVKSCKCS

B1: D56L (antibody, V domains shown)
VH: QVQLVQSGAEVKKPGSSVKVSCKASGYTFSSNVISWVRQAPGQGLEWMGGVIPIVLIANYAQRFKGRVTITADESTSTTYMELSSLRSEDTAVYYCASTLGLVLDAMDYWGQGTLVTVSS
VL: ETVLTQSPGTLSLSPGERATLSCRASQSLGSSYLAWYQQKPGQAPRLLIYGASSRAPGIPDRFSGSGSGTDFTLTISRLEPEDFAVYYCQQYADSPITFGQGTRLEIK
notes: GC1008 IgG4 variant
B2: I54L (antibody, V domains shown)
VH: B1 VH with I54L, L56D
VL: B1 VL
notes: GC1008 IgG4 variant
B3: N32P (antibody, V domains shown)
VH: B1 VH with N32P, L56D
VL: B1 VL
notes: GC1008 IgG4 variant
B4: N32L (antibody, V domains shown)
VH: B1 VH with N32L, L56D
VL: B1 VL
notes: GC1008 IgG4 variant
B5: N32Y (antibody, V domains shown)
VH: B1 VH with N32Y, L56D
VL: B1 VL
notes: GC1008 IgG4 variant
B6: I54A (antibody, V domains shown)
VH: B1 VH with I54A, L56D
VL: B1 VL
notes: GC1008 IgG4 variant
B7: N32M (antibody, V domains shown)
VH: B1 VH with N32M, L56D
VL: B1 VL
notes: GC1008 IgG4 variant
B8: I52V (antibody, V domains shown)
VH: B1 VH with I52V, L56D
VL: B1 VL
notes: GC1008 IgG4 variant
B9: N32W (antibody, V domains shown)
VH: B1 VH with N32W, L56D
VL: B1 VL
notes: GC1008 IgG4 variant
B10: N59Y (antibody, V domains shown)
VH: B1 VH with L56D, N59Y
VL: B1 VL
notes: GC1008 IgG4 variant
B11: D56V (antibody, V domains shown)
VH: B1 VH with L56V
VL: B1 VL
notes: GC1008 IgG4 variant
B12: G101Y (antibody, V domains shown)
VH: B1 VH with L56D, G101Y
VL: B1 VL
notes: GC1008 IgG4 variant
B13: L104W (antibody, V domains shown)
VH: B1 VH with L56D, L104W
VL: B1 VL
notes: GC1008 IgG4 variant
B14: E74C (antibody, V domains shown)
VH: B1 VH with L56D, E74C
VL: B1 VL
notes: GC1008 IgG4 variant
B15: N59R (antibody, V domains shown)
VH: B1 VH with L56D, N59R
VL: B1 VL
notes: GC1008 IgG4 variant
B16: N32R (antibody, V domains shown)
VH: B1 VH with N32R, L56D
VL: B1 VL
notes: GC1008 IgG4 variant
B17: N32G (antibody, V domains shown)
VH: B1 VH with N32G, L56D
VL: B1 VL
notes: GC1008 IgG4 variant
B18: N32S (antibody, V domains shown)
VH: B1 VH with N32S, L56D
VL: B1 VL
notes: GC1008 IgG4 variant
B19: D56Q (antibody, V domains shown)
VH: B1 VH with L56Q
VL: B1 VL
notes: GC1008 IgG4 variant
B20: I54H (antibody, V domains shown)
VH: B1 VH with I54H, L56D
VL: B1 VL
notes: GC1008 IgG4 variant
B21: N32D (antibody, V domains shown)
VH: B1 VH with N32D, L56D
VL: B1 VL
notes: GC1008 IgG4 variant
B22: D56S (antibody, V domains shown)
VH: B1 VH with L56S
VL: B1 VL
notes: GC1008 IgG4 variant
B23: N32A (antibody, V domains shown)
VH: B1 VH with N32A, L56D
VL: B1 VL
notes: GC1008 IgG4 variant
B24: D56N (antibody, V domains shown)
VH: B1 VH with L56N
VL: B1 VL
notes: GC1008 IgG4 variant
B25: N32Q (antibody, V domains shown)
VH: B1 VH with N32Q, L56D
VL: B1 VL
notes: GC1008 IgG4 variant
B26: I54M (antibody, V domains shown)
VH: B1 VH with I54M, L56D
VL: B1 VL
notes: GC1008 IgG4 variant
B27: N32T (antibody, V domains shown)
VH: B1 VH with N32T, L56D
VL: B1 VL
notes: GC1008 IgG4 variant
B28: I54V (antibody, V domains shown)
VH: B1 VH with I54V, L56D
VL: B1 VL
notes: GC1008 IgG4 variant
B29: D56T (antibody, V domains shown)
VH: B1 VH with L56T
VL: B1 VL
notes: GC1008 IgG4 variant
B30: I54P (antibody, V domains shown)
VH: B1 VH with I54P, L56D
VL: B1 VL
notes: GC1008 IgG4 variant
B31: N32V (antibody, V domains shown)
VH: B1 VH with N32V, L56D
VL: B1 VL
notes: GC1008 IgG4 variant

Molecular target: T3, human TGFβ1 (human, UniProt P01137 279-390)
T3 construct: also called TGFβ1 homodimer
Experiment: Biacore off-rate vs wt GC1008, 50 nM
From the text: (§1) Plasmids encoding either the GC1008 heavy chain or light chain were used as a template in PCR-based mutagenesis reactions. Mutations to the encoding DNA were made to create 155 single amino acid substitutions of the encoded heavy chain amino acid sequence and one single amino acid substitution of the encoded light chain amino acid sequence. A QuikChange® Lightning Site-Directed Mutagenesis kit (Agilent Technologies, Santa Clara Calif.) was used according to the manufacturer's instructions to create DNA mutations using a set of forward and reverse primers, either designed for a specific amino acid or for all 20 amino acids with a degenerate codon (NNK). After sequencing confirmation, identified mutant DNA was paired with a wild-type light or heavy chain DNA for transfection into an Expi293F™ host cell suspension (Life Techonologies Corp., Grand Island, N.Y.). At 4 days post-transfection, conditioned media (1 mL) was harvested and purified using a 1 mL Protein A PhyTip® column (PhyNexus, Inc., San Jose, Calif.) and a PureSpeed™ 12-channel pipette (Rainin Instrument LLC, Oakland, Calif.). Purified variant antibody samples were analyzed in duplicate on a Biacore® 3000 (GE Healthcare) at 50 nM concentrations, using the 100 RU level TGFβ1, 2, and 3 immobilized surfaces. The off-rate (kd) of the variants was divided by the kd of the wild-type control to obtain the fold change in the kd. […] A heat map was generated to visualize the results. Variants that completely lost affinity for TGFβ were shown in red without numbers.

T3 sequence (P01137 279-390 limits assumed): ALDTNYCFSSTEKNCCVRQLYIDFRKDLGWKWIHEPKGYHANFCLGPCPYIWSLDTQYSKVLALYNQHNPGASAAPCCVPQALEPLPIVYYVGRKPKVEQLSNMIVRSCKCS

| kd var/kd wt | Binder |
| --- | --- |
| 1.3 | B1 |
| 1.2 | B2 |
| 2 | B3 |
| 1.6 | B4 |
| 2.1 | B5 |
| 1.8 | B6 |
| 1.3 | B7 |
| 0.9 | B8 |
| 1.9 | B9 |
| 1.3 | B10 |
| 1.6 | B11 |
| 1.9 | B12 |
| 4.7 | B13 |
| 1.7 | B14 |
| 2.4 | B15 |
| 2.3 | B16 |

| kd var/kd wt | Binder |
| --- | --- |
| 1.2 | B17 |
| 1.3 | B18 |
| 1.1 | B19 |
| 2.1 | B20 |
| 1.3 | B21 |
| 1.1 | B22 |
| 1.3 | B23 |
| 1.2 | B24 |
| 0.8 | B25 |
| 1.5 | B26 |
| 1.5 | B27 |
| 1 | B28 |
| 1.3 | B29 |
| 1.5 | B30 |
| 1.5 | B31 |

Molecular target: T1, human TGFβ2
Experiment: Biacore off-rate vs wt GC1008, 50 nM
From the text: as §1

| kd var/kd wt | Binder |
| --- | --- |
| 1.4 | B1 |
| 1.1 | B2 |
| 1.1 | B3 |
| 1.3 | B4 |
| 1.2 | B5 |
| 1.5 | B6 |
| 1.3 | B7 |
| 1.1 | B8 |
| 1.2 | B9 |
| 1.1 | B10 |
| 1.5 | B11 |
| 1.5 | B12 |
| 2.9 | B13 |
| 0.8 | B14 |
| 1.1 | B15 |
| 1.2 | B16 |

| kd var/kd wt | Binder |
| --- | --- |
| 1.2 | B17 |
| 1.3 | B18 |
| 1.3 | B19 |
| 1.4 | B20 |
| 1.4 | B21 |
| 1.3 | B22 |
| 1.4 | B23 |
| 1.4 | B24 |
| 0.8 | B25 |
| 1.3 | B26 |
| 1.2 | B27 |
| 1 | B28 |
| 1.5 | B29 |
| 1.3 | B30 |
| 1.1 | B31 |

Molecular target: T2, human TGFβ3
Experiment: Biacore off-rate vs wt GC1008, 50 nM
From the text: as §1

| kd var/kd wt | Binder |
| --- | --- |
| 1 | B1 |
| 1.1 | B2 |
| 1.4 | B3 |
| 1.7 | B4 |
| 1.7 | B5 |
| 2 | B6 |
| 1.2 | B7 |
| 1.2 | B8 |
| 1.1 | B9 |
| 1.5 | B10 |
| 1.3 | B11 |
| 2 | B12 |
| 5.1 | B13 |
| 0.7 | B14 |
| 1.5 | B15 |
| 1.7 | B16 |

| kd var/kd wt | Binder |
| --- | --- |
| 1.6 | B17 |
| 1.2 | B18 |
| 1 | B19 |
| 1.6 | B20 |
| 1.8 | B21 |
| 1 | B22 |
| 1.5 | B23 |
| 0.9 | B24 |
| 0.7 | B25 |
| 1.7 | B26 |
| 1.1 | B27 |
| 0.8 | B28 |
| 1.2 | B29 |
| 1.6 | B30 |
| 1.4 | B31 |
